How the values were obtained:
Test in all cases: pull-down
MBP-ORC1 = target: T1, MBP-ORC1 (human, UniProt Q13415 1-861)
T1 sequence: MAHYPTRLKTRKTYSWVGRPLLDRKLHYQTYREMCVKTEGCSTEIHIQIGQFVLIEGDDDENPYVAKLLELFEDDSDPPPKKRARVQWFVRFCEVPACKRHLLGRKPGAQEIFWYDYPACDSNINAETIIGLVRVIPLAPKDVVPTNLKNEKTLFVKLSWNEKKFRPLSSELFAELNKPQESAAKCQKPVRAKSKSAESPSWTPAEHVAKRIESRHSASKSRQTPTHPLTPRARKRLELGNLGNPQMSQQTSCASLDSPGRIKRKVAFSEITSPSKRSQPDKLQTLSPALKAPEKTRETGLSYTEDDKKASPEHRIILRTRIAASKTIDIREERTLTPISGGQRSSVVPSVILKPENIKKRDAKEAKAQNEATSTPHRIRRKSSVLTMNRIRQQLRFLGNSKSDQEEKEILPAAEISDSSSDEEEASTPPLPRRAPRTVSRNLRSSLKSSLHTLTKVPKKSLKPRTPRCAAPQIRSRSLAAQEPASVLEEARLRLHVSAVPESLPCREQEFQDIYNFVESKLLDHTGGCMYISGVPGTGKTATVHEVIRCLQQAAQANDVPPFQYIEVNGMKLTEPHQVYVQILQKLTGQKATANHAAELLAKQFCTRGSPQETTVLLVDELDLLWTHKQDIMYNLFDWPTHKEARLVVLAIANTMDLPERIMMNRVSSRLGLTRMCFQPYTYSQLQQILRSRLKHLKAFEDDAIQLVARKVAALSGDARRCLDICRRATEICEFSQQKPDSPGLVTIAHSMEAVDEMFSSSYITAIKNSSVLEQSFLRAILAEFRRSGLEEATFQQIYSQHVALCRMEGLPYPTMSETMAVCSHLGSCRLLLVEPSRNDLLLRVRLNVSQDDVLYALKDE

MBP-ORC2 = target: T2, MBP-ORC2 (human, UniProt Q13416 1-577)
T2 sequence: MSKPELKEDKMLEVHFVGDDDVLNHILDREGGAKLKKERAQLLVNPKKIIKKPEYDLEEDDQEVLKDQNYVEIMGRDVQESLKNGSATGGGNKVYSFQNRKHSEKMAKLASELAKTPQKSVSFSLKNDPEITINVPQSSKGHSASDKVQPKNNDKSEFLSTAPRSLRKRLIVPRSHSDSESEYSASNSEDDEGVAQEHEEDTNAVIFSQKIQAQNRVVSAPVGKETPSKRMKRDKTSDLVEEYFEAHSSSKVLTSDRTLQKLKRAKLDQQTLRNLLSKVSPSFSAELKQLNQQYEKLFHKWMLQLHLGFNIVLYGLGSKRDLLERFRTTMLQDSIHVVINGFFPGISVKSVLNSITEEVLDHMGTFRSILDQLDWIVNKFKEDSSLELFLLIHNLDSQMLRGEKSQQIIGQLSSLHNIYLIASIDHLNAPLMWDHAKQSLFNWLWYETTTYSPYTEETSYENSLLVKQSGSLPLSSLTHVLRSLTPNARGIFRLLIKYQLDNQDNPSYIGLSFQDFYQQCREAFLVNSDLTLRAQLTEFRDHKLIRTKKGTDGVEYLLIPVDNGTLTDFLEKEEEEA

MBP-ORC1 A-A = target: T3, MBP-ORC1 A-A (human, UniProt Q13415 1-861, 235KRL237 to 235ARA237)
T3 sequence: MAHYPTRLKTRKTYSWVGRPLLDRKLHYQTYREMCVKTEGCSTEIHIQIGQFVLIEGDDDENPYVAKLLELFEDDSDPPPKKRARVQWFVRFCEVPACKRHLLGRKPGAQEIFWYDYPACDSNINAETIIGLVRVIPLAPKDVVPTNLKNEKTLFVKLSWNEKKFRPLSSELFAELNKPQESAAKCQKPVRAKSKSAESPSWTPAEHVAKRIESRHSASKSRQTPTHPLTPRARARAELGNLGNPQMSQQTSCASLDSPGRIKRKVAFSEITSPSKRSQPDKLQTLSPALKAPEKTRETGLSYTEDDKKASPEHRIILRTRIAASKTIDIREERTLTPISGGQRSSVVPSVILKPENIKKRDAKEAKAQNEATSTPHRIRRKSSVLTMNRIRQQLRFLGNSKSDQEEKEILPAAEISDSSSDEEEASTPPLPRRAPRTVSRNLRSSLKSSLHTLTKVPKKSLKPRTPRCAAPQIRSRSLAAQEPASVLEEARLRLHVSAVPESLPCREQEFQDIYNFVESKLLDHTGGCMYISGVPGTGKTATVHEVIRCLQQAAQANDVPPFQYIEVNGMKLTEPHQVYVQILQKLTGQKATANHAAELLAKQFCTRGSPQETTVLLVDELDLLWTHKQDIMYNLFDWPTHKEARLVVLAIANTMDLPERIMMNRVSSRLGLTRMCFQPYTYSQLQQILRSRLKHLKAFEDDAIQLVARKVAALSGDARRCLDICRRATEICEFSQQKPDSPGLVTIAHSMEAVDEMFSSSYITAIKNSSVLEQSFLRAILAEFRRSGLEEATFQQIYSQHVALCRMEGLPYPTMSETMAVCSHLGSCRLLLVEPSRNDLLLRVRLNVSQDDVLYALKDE

Measured: binding result

B1: GST-CDC6 (natural protein)
chain: MPQTRSQAQATISFPKRKLSRALNKAKNSSDAKLEPTNVQTVTCSPRVKALPLSPRKRLGDDNLCNTPHLPPCSPPKQGKKENGPPHSHTLKGRRLVFDNQLTIKSPSKRELAKVHQNKILSSVRKSQEITTNSEQRCPLKKESACVRLFKQEGTCYQQAKLVLNTAVPDRLPAREREMDVIRNFLREHICGKKAGSLYLSGAPGTGKTACLSRILQDLKKELKGFKTIMLNCMSLRTAQAVFPAIAQEICQEEVSRPAGKDMMRKLEKHMTAEKGPMIVLVLDEMDQLDSKGQDVLYTLFEWPWLSNSHLVLIGIANTLDLTDRILPRLQAREKCKPQLLNFPPYTRNQIVTILQDRLNQVSRDQVLDNAAVQFCARKVSAVSGDVRKALDVCRRAIEIVESDVKSQTILKPLSECKSPSEPLIPKRVGLIHISQVISEVDGNRMTLSQEGAQDSFPLQQKILVCSLMLLIRQLKIKEVTLGKLYEAYSKVCRKQQVAAVDQSECLSLSGLLEARGILGLKRNKETRLTKVFFKIEEKEIEHALKDKALIGNILATGLP
binds: all assays above
